Experimental findings from article PMC6591005 are described below.

For orientation: stoichiometry N means a count of units in the complex or per binding partner.

This assay addresses GII.4.2002 P domain (human norovirus GII.4 2002 (Farmington Hills)). Description: crystal structure.

Substance “GII.4.2002 P domain (domain or fragment)” gave a stoichiometry N of 2.
